Numbering of substitutions follows the chain as printed.
B1: Nanobody 39D11 (VHH)
VHH: EVQLVESGGGLVQPGGSLRLSCAASGFTFGSYDMSWVRQAPGKGPEWVSSIDTGGDITHYADSVKGRFTISRDNANNMLYLQMNSLKPEDTAVYWCATDEDYALGPNEYDYYGQGTQVTVSS
notes: not shown: C-terminal c-myc tag and His6 tag
B2: Nanobody 39D8 (VHH)
VHH: B1 VHH with E89G
notes: also called 39D08; not shown: C-terminal c-myc tag and His6 tag
B3: Nanobody 36G5 (VHH)
VHH: EVQLVESGGGLVQPGGSLRLSCVASGFTFGSYDMSWVRQAPGKRPEWVSAINSGGGSTYYADSVKGRFTISRDNAKNTLYLQMNSLKPEDTAVYYCATDEDYALGPNEYDYYGQGTQVTVSS
notes: as for B1
B4: Nanobody 39B2 (VHH)
VHH: EVQLVESGGGLVQPGGSLRLSCAASGFTFGSYDMSWVRQAPGKGPEWVSAINSGGGSTYYADSVKGRFTISRDNAKNTLYLQMNSLKPEDTAVYYCSTDLGPWIEGTMEEYEYEYWGQGTQVTVSS
notes: also called 39B02; not shown: C-terminal c-myc tag and His6 tag
B5: Nanobody 42G5 (VHH)
VHH: B1 VHH with Q13R, S31N, S63P, N76A, M78T, W95Y
notes: as for B1
B6: Nanobody 42D7 (VHH)
VHH: B1 VHH with S17P
notes: as for B1

biological target: T1, human IgE (Diatec, Oslo, Norway) (human, UniProt P01854-1 1-428); assay: cell-based or functional assay
T1 sequence (P01854 other isoform, or with tags, fused parts or gaps): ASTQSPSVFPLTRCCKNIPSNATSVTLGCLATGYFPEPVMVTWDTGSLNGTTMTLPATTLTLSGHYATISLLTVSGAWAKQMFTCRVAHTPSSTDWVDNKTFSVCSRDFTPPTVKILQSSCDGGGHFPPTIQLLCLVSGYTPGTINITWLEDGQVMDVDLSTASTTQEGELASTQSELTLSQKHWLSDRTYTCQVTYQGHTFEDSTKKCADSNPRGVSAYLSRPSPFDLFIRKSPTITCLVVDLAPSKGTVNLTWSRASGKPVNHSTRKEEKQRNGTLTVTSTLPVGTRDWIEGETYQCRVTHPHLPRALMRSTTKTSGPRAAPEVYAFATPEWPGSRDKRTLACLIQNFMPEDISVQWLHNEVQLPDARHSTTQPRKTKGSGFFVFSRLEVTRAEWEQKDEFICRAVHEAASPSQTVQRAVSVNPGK

| Binder | block of degranulation at 500 nM Nanobody [%] |
| --- | --- |
| B1 | > 95 |
| B2 | > 95 |
| B3 | > 95 |
| B4 | 25 |

biological target: T1, human IgE (Diatec, Oslo, Norway); assay: ELISA, competition with coated Fc(epsilon)RI for HuIgE

| Binder | % inhibition by 500 nM Nanobody [%] | IC50 [nM] |
| --- | --- | --- |
| B1 | 99.5 | 0.511 |
| B2 | 99.4 | 0.55 |
| B5 | 98.1 | 8.38 |
| B6 | 99.6 | 0.959 |
| B3 | 98.6 | 2.96 |
| B4 | 69.3 | 39.4 |

biological target: T1, human IgE (Diatec, Oslo, Norway); assay: ELISA, competition with coated Fc(epsilon)RII for HuIgE

| Binder | fold less potent (against 39D11, 36G5 and Reference Fab) [fold] |
| --- | --- |
| B4 | 10 |

Biological target: T2, cyno IgE c(epsilon)2-c(epsilon)3-c(epsilon)4 Fc fragment with C-terminal (His)10 tag (cynomolgus monkey)
T2 construct: Made in HEK-EBNA cells with the murine Ig kappa leader; Biotinylated in the Alphascreen; also called cyno IgE Fc; cyno IgE-Fc
T2 chain: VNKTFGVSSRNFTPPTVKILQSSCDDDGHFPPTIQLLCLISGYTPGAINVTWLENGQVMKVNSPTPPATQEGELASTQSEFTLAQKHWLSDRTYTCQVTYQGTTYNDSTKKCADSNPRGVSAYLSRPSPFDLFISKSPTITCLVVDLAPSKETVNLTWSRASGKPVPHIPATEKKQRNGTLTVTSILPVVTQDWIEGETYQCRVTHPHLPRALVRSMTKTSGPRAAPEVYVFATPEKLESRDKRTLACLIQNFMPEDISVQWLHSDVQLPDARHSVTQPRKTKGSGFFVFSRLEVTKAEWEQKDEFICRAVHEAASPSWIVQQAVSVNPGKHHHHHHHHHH
Assay: Alphascreen, competition with HuFc(epsilon)RI(alpha)Fc for cyno IgE Fc

| Binder | % inhibition at 250 nM Nanobody [%] | IC50 [nM] |
| --- | --- | --- |
| B1 | 93.5 | 0.119 |
| B2 | 93.6 | 0.0742 |
| B5 | 91.2 | 0.96 |
| B6 | 92.7 | 0.127 |
| B3 | 88.1 | 0.584 |
